According to patent US20130071424A1:

Assays:
[1] = target: AIDSVAX recombinant gp120 immunogen A244 (AIDSVAX subtype E) (HIV-1 subtype E (CRF01_AE) strain A244); assay: ELISA, gp120 coated at 3 µg/ml, antibody titrated 0.002-10 µg/ml
[2] = target: AIDSVAX recombinant gp120 immunogen MN (AIDSVAX subtype B) (HIV-1 subtype B strain MN) (UniProt P05877); assay: as above

Question: How did the EC50 [1] turn out when human anti-V2 monoclonal antibody 697-D was run?
Answer: 5.7 ng/mL

Question: What about the EC50 [2] of the same substance?
Answer: 5.5 ng/mL

Question: human anti-V2 monoclonal antibody 2158 was tested. Which EC50 [1] did it give?
Answer: 4.1 ng/mL

Question: And the EC50 [2]?
Answer: 3.9 ng/mL
